Experiments:
[1] = target: T1, type I recombinant human collagen (human, UniProt P02452 162-1218; P08123 80-1119); experiment: SPR, antibody captured on protein A, GM-CSF then collagen
recombinant human GM-CSF [2] = target: T2, recombinant human GM-CSF (human, UniProt P04141 18-144); experiment: as above
recombinant human GM-CSF [3] = target: T2, recombinant human GM-CSF; experiment: SPR, GM-CSF on the chip, antibody then collagen
recombinant human GM-CSF [4] = target: T2, recombinant human GM-CSF; experiment: SPR, GM-CSF on the chip
recombinant human GM-CSF [5] = target: T2, recombinant human GM-CSF; experiment: ELISA, plate coated with GM-CSF
[6] = target: T1, type I recombinant human collagen; experiment: SPR, GM-CSF on the chip, antibody then collagen

T2 sequence (P04141 18-144 limits assumed): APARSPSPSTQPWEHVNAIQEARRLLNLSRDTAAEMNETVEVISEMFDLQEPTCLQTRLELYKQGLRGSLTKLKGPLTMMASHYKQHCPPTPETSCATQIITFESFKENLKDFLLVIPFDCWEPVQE
T1 sequence (P02452 162-1218 limits assumed, chain 1 of 2): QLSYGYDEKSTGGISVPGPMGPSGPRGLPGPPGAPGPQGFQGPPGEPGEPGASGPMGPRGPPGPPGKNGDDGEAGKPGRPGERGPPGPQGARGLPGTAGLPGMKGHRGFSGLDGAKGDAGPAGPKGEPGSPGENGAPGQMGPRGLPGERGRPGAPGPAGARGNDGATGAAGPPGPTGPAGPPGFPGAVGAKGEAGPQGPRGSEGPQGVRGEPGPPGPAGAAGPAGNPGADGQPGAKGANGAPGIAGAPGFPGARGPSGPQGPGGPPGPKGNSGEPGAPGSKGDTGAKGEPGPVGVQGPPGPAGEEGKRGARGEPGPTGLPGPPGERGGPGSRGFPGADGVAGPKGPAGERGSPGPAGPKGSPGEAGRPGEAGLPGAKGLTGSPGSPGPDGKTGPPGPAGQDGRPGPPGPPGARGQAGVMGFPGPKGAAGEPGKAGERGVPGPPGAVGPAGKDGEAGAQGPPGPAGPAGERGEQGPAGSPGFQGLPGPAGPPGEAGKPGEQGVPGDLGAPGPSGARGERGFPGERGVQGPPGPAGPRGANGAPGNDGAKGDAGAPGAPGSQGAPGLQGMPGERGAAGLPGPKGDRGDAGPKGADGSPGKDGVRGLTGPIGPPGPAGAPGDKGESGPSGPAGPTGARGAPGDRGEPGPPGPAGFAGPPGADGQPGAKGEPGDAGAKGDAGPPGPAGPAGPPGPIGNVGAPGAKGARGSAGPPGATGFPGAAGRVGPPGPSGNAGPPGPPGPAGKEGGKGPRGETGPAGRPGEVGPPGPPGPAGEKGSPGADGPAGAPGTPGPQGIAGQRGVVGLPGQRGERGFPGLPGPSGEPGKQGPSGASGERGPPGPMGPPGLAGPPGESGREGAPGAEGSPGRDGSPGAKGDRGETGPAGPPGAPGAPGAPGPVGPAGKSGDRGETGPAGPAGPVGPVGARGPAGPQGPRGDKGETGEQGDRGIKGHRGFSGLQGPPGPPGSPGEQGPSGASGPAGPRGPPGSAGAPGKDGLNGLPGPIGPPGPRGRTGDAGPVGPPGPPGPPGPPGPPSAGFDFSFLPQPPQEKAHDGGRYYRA
T1 sequence (P08123 80-1119 limits assumed, chain 2 of 2): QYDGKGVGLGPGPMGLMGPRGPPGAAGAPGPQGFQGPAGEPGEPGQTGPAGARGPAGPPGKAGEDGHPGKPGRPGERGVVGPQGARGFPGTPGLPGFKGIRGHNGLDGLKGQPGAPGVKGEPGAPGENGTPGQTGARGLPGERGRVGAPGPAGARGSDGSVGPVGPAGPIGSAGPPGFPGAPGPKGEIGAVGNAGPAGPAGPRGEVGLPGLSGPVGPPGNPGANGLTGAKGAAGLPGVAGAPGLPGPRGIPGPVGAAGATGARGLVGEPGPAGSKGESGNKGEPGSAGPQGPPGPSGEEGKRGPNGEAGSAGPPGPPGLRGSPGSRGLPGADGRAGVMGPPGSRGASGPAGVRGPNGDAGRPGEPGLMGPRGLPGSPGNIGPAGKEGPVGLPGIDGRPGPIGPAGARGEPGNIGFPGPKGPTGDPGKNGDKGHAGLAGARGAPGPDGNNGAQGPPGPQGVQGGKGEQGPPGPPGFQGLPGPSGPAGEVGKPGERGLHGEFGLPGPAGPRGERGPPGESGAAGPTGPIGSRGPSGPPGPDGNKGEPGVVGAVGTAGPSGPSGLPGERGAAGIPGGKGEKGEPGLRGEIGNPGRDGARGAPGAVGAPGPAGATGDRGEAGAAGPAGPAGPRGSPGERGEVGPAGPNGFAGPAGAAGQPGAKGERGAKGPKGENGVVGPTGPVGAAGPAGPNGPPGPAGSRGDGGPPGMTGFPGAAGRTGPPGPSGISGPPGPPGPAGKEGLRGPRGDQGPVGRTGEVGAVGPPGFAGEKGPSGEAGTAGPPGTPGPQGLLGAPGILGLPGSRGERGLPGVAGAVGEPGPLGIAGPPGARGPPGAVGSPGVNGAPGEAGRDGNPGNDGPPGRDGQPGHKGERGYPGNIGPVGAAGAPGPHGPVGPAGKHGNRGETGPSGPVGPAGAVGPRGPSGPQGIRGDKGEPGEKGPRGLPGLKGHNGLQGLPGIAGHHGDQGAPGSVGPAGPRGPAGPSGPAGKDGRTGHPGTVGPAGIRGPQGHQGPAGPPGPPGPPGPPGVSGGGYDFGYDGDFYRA

B1: TT107 (antibody, V domains shown)
VH: QVQLIQSGGGLVKPGGSLRLSCAASGFTFSDYYMSWIRQVPGKGLEWISVISATTGYTDYADSVKGRFTISRDNAKNSVFLQMNSLRVDDMAVYYCAREVLGTAWFDYWGQGTLVTISS
VL: EIVLTQSPGTLSLSPGERATLSCRASQSVTSNYLAWYQQKPGQAPRLLIYGVSRRATGIPDRFSGSGSGTDFALTISRLEPEDFAVYYCQQYRSSPRTFGPGTKVEFKR
notes: also called TT-specific monoclonal antibody
B1: no binding (tested: collagen 50 nM) [1]; no binding (tested: GM-CSF 50 nM) (recombinant human GM-CSF [2]).

B2: MGD^UCA (antibody, human IgG1, kappa)
heavy: not shown
light: AIRMTQSPSSFSASTGDRVTITCRASQGISSYLAWYQQKPGKAPKLLIYAASTLQSGVPSRFSGSGSGTDFTLTISCLQSEDFATYYCQQYYSYPPDFGQGTRLEIKRTVAAPSVFIFPPSDEQLKSGTASVVCLLNNFYPREAKVQWKVDNALQSGNSQESVTEQDSKDSTYSLSSTLTLSKADYEKHKVYACEVTHQGLSSPVTKSFNRGEC
notes: also called collagen-specific MGD^UCA antibody
B2: no binding (tested: antibody 10 nM) (recombinant human GM-CSF [3]).

B3: FI174 (antibody, V domains shown)
VH: QVQLVQSGAEVRKPGSSVKVSCKTSGGIIRKYALSWVRQAPGQGLEWMGGIIAIFGTTNYAQKFQGRVTINADESTSTVYLELSSLTSEDTAIYYCAGSATYYESRFDYWGQGTLVTVSS
VL: EIVLTQSPGTLSLSPGARATLSCRASQSVSSSSLAWYQQKPGQAPRLLIYDASSRATGIPDRFSGSGSGTDFTLTISRLEPEDFAVYYCHQYGDSRKTFGQGTKVEIKR
notes: also called F1174; FI74
B3: no binding (tested: antibody 10 nM) (recombinant human GM-CSF [3]).

B4: C4 (bispecific antibody, human IgG1, kappa)
heavy: not shown
light: EIVLTQSPGTLSLSPGETAILSCRASQSVSSSLLAWYQQKPGQAPRLLIYGASNRATGIRGRFSGSGSGTDFTLTISRLEPEDFVLYYCQHYGSRVTFGQGTKLEIKRTVAAPSVFIFPPSDEQLKSGTASVVCLLNNFYPREAKVQWKVDNALQSGNSQESVTEQDSKDSTYSLSSTLTLSKADYEKHKVYACEVTHQGLSSPVTKSFNRGEC
notes: also called construct C4; bispecific construct C4
B4: binds (recombinant human GM-CSF [4]).

B5: C5 (antibody, human IgG1, kappa)
heavy: not shown
light: EIVLTQSPGTLSLSPGETAILSCRASQSVSSSLLAWYQQKPGQAPRLLIYGASNRATGIRGRFSGSGSGTDFTLTISRLEPEDFVLYYCQHYGSRVTFGQGTKLEIKRTVAAPSVFIFPPSDEQLKSGTASVVCLLNNFYPREAKVQWKVDNALQSGNSQESVTEQDSKDSTYSLSSTLTLSKADYEKHKVYACEVTHQGLSSPVTKSFNRGEC
notes: also called construct C5
B5: binds (recombinant human GM-CSF [4]).

B6: C5b (antibody, human IgG1, kappa)
heavy: not shown
light: EIVLTQSPGTLSLSPGETAILSCRASQSVSSSLLAWYQQKPGQAPRLLIYGASNRATGIRGRFSGSGSGTDFTLTISRLEPEDFVLYYCQHYGSRVTFGQGTKLEIKRTVAAPSVFIFPPSDEQLKSGTASVVCLLNNFYPREAKVQWKVDNALQSGNSQESVTEQDSKDSTYSLSSTLTLSKADYEKHKVYACEVTHQGLSSPVTKSFNRGEC
notes: also called construct C5b
B6: binds (recombinant human GM-CSF [5]).

B7: GCE536 (antibody, human IgG1, kappa)
heavy: not shown
light: EIVLTQSPGTLSLSPGETAILSCRASQSVSSSLLAWYQQKPGQAPRLLIYGASNRATGIRGRFSGSGSGTDFTLTISRLEPEDFVLYYCQHYGSRVTFGQGTKLEIKRTVAAPSVFIFPPSDEQLKSGTASVVCLLNNFYPREAKVQWKVDNALQSGNSQESVTEQDSKDSTYSLSSTLTLSKADYEKHKVYACEVTHQGLSSPVTKSFNRGEC
notes: also called anti-GM-CSF antibody; scaffold antibody
B7: no binding (tested: collagen 50 nM) [6]; binds (recombinant human GM-CSF [4]).

B8: C6b (antibody, human IgG1, kappa)
heavy: not shown
light: EIVLTQSPGTLSLSPGETAILSCRASQSVSSSLLAWYQQKPGQAPRLLIYGASNRATGIRGRFSGSGSGTDFTLTISRLEPEDFVLYYCQHYGSRVTFGQGTKLEIKRTVAAPSVFIFPPSDEQLKSGTASVVCLLNNFYPREAKVQWKVDNALQSGNSQESVTEQDSKDSTYSLSSTLTLSKADYEKHKVYACEVTHQGLSSPVTKSFNRGEC
notes: also called construct C6b
B8: binds (recombinant human GM-CSF [5]).

Reference: patent publication US20200325220A1 (INSTITUTE FOR RESEARCH IN BIOMEDICINE, published 2020)
